The supplement of paper PMC7877785
± gives the uncertainty stated by the source.

Assay: self-splicing fitness, log relative to wild type (ln ratio); higher = more splicing; Tetrahymena group I intron in knt gene, E. coli kanamycin selection, DiMSum; sequences stand for … in CUCUCU…GGAGGGAAAAGUUAUCAGGCAUGCACCUGGUAGCUAGUCUUUAAACCAAUAGAUUGCAUCGGUUUAAAAGGCAAGACCGUCAAAUUGCGGGAAAGGGGUCAACAGCCGUUCAGUACCAAGUCUCAGGGGAAACUUUGAGAUGGCCUUGCAAAGGGUAUGGUAAUAAGCUGACGGACAUGGUCCUAACCACGCAGCCAAGUCCUAAGUCAACAGAUCUUCUGUUGAUAUGGAUGCAGUUCACAGACUAAAUGUCGGUCGGGGAAGAUGUAUUCUUCUCAUAAGAUAUAGUCGGACCUCUCCUUAAUGGGAGCUAGCGGAUGAAGUGAUGCAACACUGGAGCCGCUGGGAACUAAUUUGUAUGCGAAAGUAUAUUGAUUAGUUUUGGAGUACUCGUGGUCG
In short: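 Library with all eight P1ex-region intron nucleotides randomised, intron inside the knt kanamycin-resistance gene on pET-22b(+), in E. coli BL21(DE3). Cells grew overnight at 37°C or 30°C on LB agar with or without 25 μg/mL kanamycin (plus 100 μg/mL carbenicillin, 50 μM IPTG, 0.2% rhamnose), in six replicate transformations. Pooled colonies were amplicon-sequenced on Illumina HiSeq 2500. DiMSum fitness is the error-weighted combination of wild-type-normalised replicate fold changes, kanamycin versus none.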

Sequence | self-splicing fitness (ln) (30 °C) | self-splicing fitness (ln) (37 °C)
AGCAAGCAAUAUUACGAUGC | -2.08 ± 0.11 | -1.71 ± 0.14
AGCAAGCAAUAUUACGCCCG | -0.279 ± 0.08 | -0.0697 ± 0.11
AGCAAGCAAUAUUACGCCGG | -3.71 ± 0.37 | -1.81 ± 0.24
AGCAAGCAAUAUUACGCGGC | -3.39 ± 0.34 | -1.82 ± 0.19
AGCAAGCAAUAUUACGCUCU | -3 ± 0.22 | -1.57 ± 0.17
AGCAAGCAAUAUUACGGCCC | 0.104 ± 0.19 | -0.363 ± 0.28
AGCAAGCAAUAUUACGGCGA | -0.386 ± 0.094 | -0.039 ± 0.11
AGCAAGCAAUAUUACGGCGG | -1.29 ± 0.083 | 0.133 ± 0.11
AGCAAGCAAUAUUACGGUGU | -2.65 ± 0.13 | -0.608 ± 0.1
AGCAAGCAAUAUUACGUACG | -1.99 ± 0.13 | -0.695 ± 0.11
AGCAAGCAAUAUUACGUACU | -0.47 ± 0.057 | -0.368 ± 0.075
AGCAAGCAAUAUUACGUAUU | -3.02 ± 0.14 | -1.24 ± 0.11
AGCAAGCAAUAUUACGUCUA | -0.673 ± 0.062 | -0.456 ± 0.08
AGCAAGCAAUAUUACGUCUC | -2.61 ± 0.29 | 
AGCAAGCAAUAUUACGUGGG | -3.44 ± 0.12 | -2.37 ± 0.16
AGCCAGCAAUAUUACGAACA | -2.8 ± 0.24 | -1.98 ± 0.33
AGCCAGCAAUAUUACGAAUC |  | -1.94 ± 0.39
AGCCAGCAAUAUUACGAGAA | -2.99 ± 0.36 | -1.42 ± 0.3
AGCCAGCAAUAUUACGAGAC | -3.57 ± 0.18 | -2.61 ± 0.16
AGCCAGCAAUAUUACGAGGC | -3.6 ± 0.2 | -2.02 ± 0.19
AGCCAGCAAUAUUACGAGGG | -2.58 ± 0.15 | -2.38 ± 0.17
AGCCAGCAAUAUUACGAUAA | -4.66 ± 0.46 | -2.89 ± 0.17
AGCCAGCAAUAUUACGAUAU | -3.25 ± 0.16 | -1.83 ± 0.14
AGCCAGCAAUAUUACGAUCU | -0.174 ± 0.11 | 0.256 ± 0.1

Sequence | self-splicing fitness (ln) (30 °C) | self-splicing fitness (ln) (37 °C)
AGCCAGCAAUAUUACGCAGA | -3.39 ± 0.18 | -2.94 ± 0.18
AGCCAGCAAUAUUACGCAGU | -4 ± 0.2 | -3.46 ± 0.21
AGCCAGCAAUAUUACGCCCA | -1.93 ± 0.2 | -1.72 ± 0.25
AGCCAGCAAUAUUACGCCCU | 0.0781 ± 0.11 | 0.234 ± 0.13
AGCCAGCAAUAUUACGCCGC | -2.98 ± 0.28 | -3.25 ± 0.37
AGCCAGCAAUAUUACGCCUG | -2.37 ± 0.16 | -2.11 ± 0.27
AGCCAGCAAUAUUACGCGAC | -0.935 ± 0.13 | -1.78 ± 0.2
AGCCAGCAAUAUUACGCUGU | -3.57 ± 0.2 | -3.32 ± 0.19
AGCCAGCAAUAUUACGGAAA | -1.88 ± 0.3 | -1.3 ± 0.25
AGCCAGCAAUAUUACGGACA | -0.814 ± 0.1 | -0.491 ± 0.13
AGCCAGCAAUAUUACGGACC | -0.609 ± 0.095 | -0.386 ± 0.11
AGCCAGCAAUAUUACGGACU | -1.93 ± 0.088 | -0.917 ± 0.096
AGCCAGCAAUAUUACGGAUG | -1.85 ± 0.1 | -0.824 ± 0.12
AGCCAGCAAUAUUACGGCGA | -1.33 ± 0.095 | -0.342 ± 0.11
AGCCAGCAAUAUUACGGGCG | -2.66 ± 0.1 | -0.918 ± 0.1
AGCCAGCAAUAUUACGGGGA | -1.87 ± 0.12 | -0.713 ± 0.11
AGCCAGCAAUAUUACGGUCA | -0.0408 ± 0.09 | 0.4 ± 0.093
AGCCAGCAAUAUUACGUCUA | -3 ± 0.21 | -2.05 ± 0.19
AGCCAGCAAUAUUACGUGUG | -3.01 ± 0.09 | -1.61 ± 0.086
AGCGAGCAAUAUUACGACGG | -3.17 ± 0.44 | -1.81 ± 0.26
AGCGAGCAAUAUUACGAGGC | -3.16 ± 0.44 | 
AGCGAGCAAUAUUACGAGUC | -3.91 ± 0.42 | -2.24 ± 0.24
AGCGAGCAAUAUUACGAUCC |  | -0.865 ± 0.49
AGCGAGCAAUAUUACGAUCU | -0.233 ± 0.09 | -0.579 ± 0.12
